Measured values reported in the supplement of paper PMC10567573.

B1: MATN2 (parent)
chain: TDDSYSCHCLKGFTLNPDKKTCRR

Variants of: B1
Test: protein stability index of a GFP-peptide fusion (GPS, HEK-293T) (PSI 1-6); higher = more stable
Conditions: c terminus: a fixed tail appended
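Note: lentivirally expressed fusions sorted by FACS into six bins by GFP to DsRed ratio, PSI derived from sequencing read proportions per bin multiplied by bin number.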

Compared with R23W, R23S is higher in protein stability index: 2.26 for the first, 2.29 for the second.

Compared with R23D, R23F is lower in protein stability index: 2.62 for the first, 1.86 for the second.

Compared with R23H, R23L is higher in protein stability index: 1.91 for the first, 2.36 for the second.

Going from R23P to R23I, the protein stability index falls from 2.56 to 2.02.

First: R23M
Second: R23K
The protein stability index of the first is lower: 1.5 for the first, 2.76 for the second.

R23T and R23E are the same in protein stability index: 2.52 for the first, 2.52 for the second.

Going from R23Q to R23N, the protein stability index falls from 2.78 to 2.71.

First: R23V
Second: R23G
The protein stability index of the first is lower: 2.48 for the first, 2.62 for the second.

First: R23Y
Second: R24S
The protein stability index of the first is lower: 2.2 for the first, 2.87 for the second.

Going from R24Q to R24N, the protein stability index rises from 2.61 to 3.25.

Compared with R24H, R24L is lower in protein stability index: 4.06 for the first, 2.38 for the second.

Going from R24D to R24Y, the protein stability index falls from 3.73 to 2.6.

Going from R24M to R24T, the protein stability index rises from 2.19 to 3.15.

Going from R24C to R24G, the protein stability index falls from 5.18 to 3.12.

First: R24W
Second: R24K
The protein stability index of the first is lower: 1.99 for the first, 2.99 for the second.

Going from R24V to R24I, the protein stability index falls from 2.32 to 1.6.

Compared with R24A, R24P is lower in protein stability index: 2.87 for the first, 2.46 for the second.

First: R24F
Second: R24E
The protein stability index of the first is lower: 2.5 for the first, 3.43 for the second.
